From article PMC7352202, “An Integrative Synthetic Biology Approach to Interrogating Cellular Ubiquitin and Ufm Signaling” (International Journal of Molecular Sciences, 2020) come the findings set out here.

The assay concerns the target T1, GST-UFL1 (human, UniProt O94874 1-794).
T1 construct: UFL1, human, E3 ligase for ufmylation; purified recombinant GST-UFL1; The end of the GST tag is read from the printed name 'GST-UFL1'; source: E. coli BL21, purified (glutathione beads); not shown: GST, N-terminal, kept
T1 sequence (looked up): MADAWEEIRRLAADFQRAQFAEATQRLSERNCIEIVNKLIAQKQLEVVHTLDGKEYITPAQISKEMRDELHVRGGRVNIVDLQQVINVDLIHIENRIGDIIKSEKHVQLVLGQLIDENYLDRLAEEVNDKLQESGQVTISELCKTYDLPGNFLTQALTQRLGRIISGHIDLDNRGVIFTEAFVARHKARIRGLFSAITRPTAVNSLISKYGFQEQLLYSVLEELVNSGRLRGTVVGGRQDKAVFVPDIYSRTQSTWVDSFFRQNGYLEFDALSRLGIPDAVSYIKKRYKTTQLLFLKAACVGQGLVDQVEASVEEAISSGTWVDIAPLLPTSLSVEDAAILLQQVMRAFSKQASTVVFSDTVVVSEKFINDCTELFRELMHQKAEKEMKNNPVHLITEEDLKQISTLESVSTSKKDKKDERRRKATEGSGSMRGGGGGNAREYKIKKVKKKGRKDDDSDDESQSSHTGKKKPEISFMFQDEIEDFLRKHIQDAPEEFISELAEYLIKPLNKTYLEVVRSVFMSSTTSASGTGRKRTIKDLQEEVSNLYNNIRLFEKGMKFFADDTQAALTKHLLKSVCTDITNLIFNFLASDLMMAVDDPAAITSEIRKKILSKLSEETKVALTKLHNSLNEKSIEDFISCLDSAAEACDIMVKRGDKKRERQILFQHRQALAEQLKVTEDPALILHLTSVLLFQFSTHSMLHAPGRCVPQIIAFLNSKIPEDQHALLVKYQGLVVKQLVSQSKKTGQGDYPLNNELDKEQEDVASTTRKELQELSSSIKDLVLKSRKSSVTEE
Put plainly: pull-down; GST pull-down: purified GST-UFL1 (20 ug) and substrate-Flag-His6 (20 ug) with Glutathione Sepharose 4B beads, 4 °C overnight, 20 mM Tris-Cl, 100 mM NaCl, 5 mM MgCl2, 1 mM EDTA, 1 mM DTT, 0.5% NP-40, 10 ug/mL BSA, pH 7.5; immunoblot. Conditions: both partners purified.

B1: MT1M-Flag-His6 (natural protein)
chain: not shown
notes: MT1M, metallothionein family, human; purified recombinant MT1M-Flag-His6; The ends of the tags are read from the printed name; source: E. coli BL21, purified (Ni-NTA beads); not shown: Flag, C-terminal, kept; His6, C-terminal, kept
B1: the binding result is reported as “binds”.
